From patent US20250215104A1 (WALDEN BIOSCIENCES, published 2025)
Where a chain is given by its changes, count along the chain named.

B1: suPAR_DB02_E06 (scFv, V domains shown)
VH: QVQLVQSGAEVKKPGASVKVSCKASGYTFTGYYMHWVRQAPGQGLEWMGWIDPENGNTIYDQKFQGRVTMTRDTSTSTVYMELSSLRSEDTAVYYCARGYDVDWFVYWGQGTLVTVSS
VL: DIQMTQSPSSLSASVGDRVTITCSARSSVSYMYWYQQKPGKAPKLLIYRTSNLASGVPSRFSGSGSGTDFTLTISSLQPEDFATYYCQQYHSYPPTFGGGTKVEIK
notes: scFv clone from phage display
B2: suPAR_DB02_D12 (scFv, V domains shown)
VH: B1 VH with T30S, G31N, P53H, N55G, N57S, D61A
VL: B1 VL with Y90S
notes: scFv clone from phage display
B3: suPAR_DB02_H02 (scFv, V domains shown)
VH: B1 VH with M34L, N57S
VL: B1 VL
notes: scFv clone from phage display
B4: suPAR_DB02_E04 (scFv, V domains shown)
VH: B1 VH with G31N, M34I, H35Q, P53H
VL: B1 VL
notes: scFv clone from phage display
B5: suPAR_DB02_G11 (scFv, V domains shown)
VH: B1 VH with Y27D, P53H, N55G, D61A
VL: B1 VL
notes: scFv clone from phage display
B6: suPAR_DB02_G01 (scFv, V domains shown)
VH: B1 VH with Y27H, G31D, D52S, E54N, N55S, N57G, I59N, D61A
VL: B1 VL
notes: scFv clone from phage display
B7: suPAR_DB02_H03 (scFv, V domains shown)
VH: B1 VH with G31T, N55G, N57S
VL: B1 VL
notes: scFv clone from phage display
B8: suPAR_DB02_G10 (scFv, V domains shown)
VH: B1 VH with G31N, N57S
VL: B1 VL with S24R, S27Q, A54E, S55T
notes: scFv clone from phage display
B9: suPAR_DB02_F02 (scFv, V domains shown)
VH: B1 VH with G31D
VL: B1 VL with A54Q
notes: scFv clone from phage display
B10: suPAR_DB02_G04 (scFv, V domains shown)
VH: B1 VH with Y27H, M34I, P53H
VL: B1 VL
notes: scFv clone from phage display
B11: suPAR_DB02_G07 (scFv, V domains shown)
VH: B1 VH with G31S, N57S
VL: B1 VL with R26S, S27Q
notes: scFv clone from phage display
B12: suPAR_DB02_D11 (scFv, V domains shown)
VH: B1 VH with Y27F, T28N, F29I, T30K, G31D, M34I
VL: B1 VL
notes: scFv clone from phage display
B13: suPAR_DB02_D05 (scFv, V domains shown)
VH: B1 VH with G31S, P53H
VL: B1 VL
notes: scFv clone from phage display
B14: suPAR_DB02_H05 (scFv, V domains shown)
VH: B1 VH with T28F, G31A
VL: B1 VL
notes: scFv clone from phage display
B15: suPAR_DB02_G06 (scFv, V domains shown)
VH: B1 VH with G31N, P53H, N55G, N57S, D61A
VL: B1 VL with V29I
notes: scFv clone from phage display
B16: suPAR_DB02_D02 (scFv, V domains shown)
VH: B1 VH with Y27D, G31S, P53H, N55G, I59S, D61A
VL: B1 VL
notes: scFv clone from phage display
B17: suPAR_DB02_E07 (scFv, V domains shown)
VH: B1 VH with T28N, T30N, G31A, E54H, N55S, N57G, I59N, D61A
VL: B1 VL
notes: scFv clone from phage display
B18: suPAR_DB02_C10 (scFv, V domains shown)
VH: B1 VH with G31D, M34V, P53H, N55G, N57S
VL: B1 VL
notes: scFv clone from phage display
B19: suPAR_DB02_E10 (scFv, V domains shown)
VH: B1 VH with G31N, Y33F, P53H
VL: B1 VL
notes: scFv clone from phage display
B20: suPAR_DB02_C11 (scFv, V domains shown)
VH: B1 VH with T28N, T30K, G31D, M34I, P53H, N57S, D61A
VL: B1 VL with S27Q
notes: scFv clone from phage display
B21: suPAR_DB02_E12 (scFv, V domains shown)
VH: B1 VH with G31S, Y32N, P53H
VL: B1 VL with R26S, S27Q
notes: scFv clone from phage display
B22: suPAR_DB02_E08 (scFv, V domains shown)
VH: B1 VH with T28N, F29I, T30K, G31S, M34I, P53H, R98A
VL: B1 VL
notes: scFv clone from phage display
B23: suPAR_DB02_F05 (scFv, V domains shown)
VH: B1 VH with Y32N, H35Q, P53H
VL: B1 VL
notes: scFv clone from phage display
B24: suPAR_DB02_F03 (scFv, V domains shown)
VH: B1 VH with G31S, M34V, N55G, N57S
VL: B1 VL with N52S, A54Q
notes: scFv clone from phage display
B25: suPAR_DB02_D10 (scFv, V domains shown)
VH: B1 VH with N55G
VL: B1 VL
notes: scFv clone from phage display
B26: suPAR_DB02_H01 (scFv, V domains shown)
VH: B1 VH with Y32Q, M34I, P53H, E54S, N55G, N57S, R98G
VL: B1 VL with N52S
notes: scFv clone from phage display
B27: suPAR_DB02_G03 (scFv, V domains shown)
VH: B1 VH with G31S
VL: B1 VL with R26S, S27Q
notes: scFv clone from phage display
B28: suPAR_DB02_F10 (scFv, V domains shown)
VH: B1 VH with G31T, N55G, I59S
VL: B1 VL
notes: scFv clone from phage display
B29: suPAR_DB02_E02 (scFv, V domains shown)
VH: B1 VH with G31D, P53H
VL: B1 VL with N52S, A54Q
notes: scFv clone from phage display
B30: suPAR_DB02_D03 (scFv, V domains shown)
VH: B1 VH with G31S, Y32H, P53H
VL: B1 VL
notes: scFv clone from phage display
B31: suPAR_DB02_G12 (scFv, V domains shown)
VH: B1 VH with Y27F, T28N, F29I, T30K, G31D, M34I, N57S
VL: B1 VL with R26S, N52S, A54Q
notes: scFv clone from phage display
B32: suPAR_DB02_G02 (scFv, V domains shown)
VH: B1 VH with G31R, P53H, N57S, D61A
VL: B1 VL with N52S, A54Q
notes: scFv clone from phage display
B33: suPAR_DB02_C12 (scFv, V domains shown)
VH: B1 VH with F29L, G31D, N55G, I59S
VL: B1 VL
notes: scFv clone from phage display
B34: suPAR_DB02_D08 (scFv, V domains shown)
VH: B1 VH with G31N, P53H
VL: B1 VL with S24R, S27Q
notes: scFv clone from phage display
B35: suPAR_DB02_G09 (scFv, V domains shown)
VH: B1 VH with Y27F, F29I, T30K, G31D, E54S, N57A, I59N, Y60S, D61A, K63N
VL: B1 VL with S24R, R26S
notes: scFv clone from phage display
B36: suPAR_DB02_G05 (scFv, V domains shown)
VH: B1 VH with Y32H, N55G, D61A
VL: B1 VL with R26S
notes: scFv clone from phage display
B37: suPAR_DB02_G08 (scFv, V domains shown)
VH: B1 VH with Y27D, G31S, P53H, N55G, I59S, D61E
VL: B1 VL
notes: scFv clone from phage display
B38: suPAR_DB02_F12 (scFv, V domains shown)
VH: B1 VH with Y27D, T28M, M34L, P53H
VL: B1 VL with N52S
notes: scFv clone from phage display
B39: suPAR_DB06_F07 (scFv, V domains shown)
VH: B1 VH with G31N, P53H
VL: B1 VL

These binders were tested against T1, cynomolgus soluble urokinase plasminogen activator receptor (suPAR) (cynomolgus, UniProt Q9GK78 23-303, limits assumed) (assay: BLI (Octet) off-rate screen of scFv clones).
T1 construct: Column head says only 'cynomologus'; also called cynomolgus suPAR; cynomolgus uPAR
Target sequence in this assay (Q9GK78 23-303 limits assumed): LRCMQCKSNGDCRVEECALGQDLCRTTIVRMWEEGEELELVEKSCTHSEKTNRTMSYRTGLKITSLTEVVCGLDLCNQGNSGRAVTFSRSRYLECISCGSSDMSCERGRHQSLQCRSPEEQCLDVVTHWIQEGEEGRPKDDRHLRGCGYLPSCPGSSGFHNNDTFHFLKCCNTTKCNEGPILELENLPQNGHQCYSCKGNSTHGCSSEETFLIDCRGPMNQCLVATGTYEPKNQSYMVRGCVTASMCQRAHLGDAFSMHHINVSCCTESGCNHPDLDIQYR

In order of rising koff:
1. B16  2.49e-05 s⁻¹
2. B6  5.19e-05 s⁻¹
3. B38  9.82e-05 s⁻¹
4. B10  9.86e-05 s⁻¹
5. B37  0.000103 s⁻¹
6. B32  0.000125 s⁻¹
7. B5  0.00013 s⁻¹
8. B15  0.000132 s⁻¹
9. B23  0.000161 s⁻¹
10. B17  0.000177 s⁻¹
11. B30  0.000188 s⁻¹
12. B19  0.000189 s⁻¹
13. B29  0.000189 s⁻¹
14. B18  0.000198 s⁻¹
15. B14  0.00021 s⁻¹
16. B21  0.000215 s⁻¹
17. B4  0.000217 s⁻¹
18. B26  0.000218 s⁻¹
19. B27  0.00025 s⁻¹
20. B35  0.00025 s⁻¹
21. B12  0.000265 s⁻¹
22. B11  0.000286 s⁻¹
23. B1  0.000295 s⁻¹
24. B13  0.000305 s⁻¹
25. B34  0.000345 s⁻¹
26. B22  0.000363 s⁻¹
27. B28  0.000375 s⁻¹
28. B25  0.000381 s⁻¹
29. B20  0.0004 s⁻¹
30. B8  0.00043 s⁻¹
31. B9  0.00048 s⁻¹
32. B24  0.000492 s⁻¹
33. B3  0.000498 s⁻¹
34. B36  0.000521 s⁻¹
35. B7  0.000524 s⁻¹
36. B33  0.000582 s⁻¹
37. B31  0.000584 s⁻¹
38. B2  0.0038 s⁻¹

The binders below were run against T2, cynomolgus soluble urokinase plasminogen activator receptor (suPAR) (cynomolgus, UniProt Q9GK78 23-303, limits assumed) (assay: BLI (Octet) off-rate screen of scFv clones).
T2 construct: Target antigen of the scFv off-rate screen; also called cynomolgus suPAR; cynomolgus uPAR
Target sequence in this assay (Q9GK78 23-303 limits assumed): as above

B39 showed a koff of 0.000455 s⁻¹.

The binders below were run against T3, human soluble urokinase plasminogen activator receptor (suPAR) (human, UniProt Q03405 23-303, limits assumed) (assay: BLI (Octet) off-rate screen of scFv clones).
T3 construct: Column head says only 'human'; also called human suPAR; hsuPAR
T3 sequence (Q03405 23-303 limits assumed): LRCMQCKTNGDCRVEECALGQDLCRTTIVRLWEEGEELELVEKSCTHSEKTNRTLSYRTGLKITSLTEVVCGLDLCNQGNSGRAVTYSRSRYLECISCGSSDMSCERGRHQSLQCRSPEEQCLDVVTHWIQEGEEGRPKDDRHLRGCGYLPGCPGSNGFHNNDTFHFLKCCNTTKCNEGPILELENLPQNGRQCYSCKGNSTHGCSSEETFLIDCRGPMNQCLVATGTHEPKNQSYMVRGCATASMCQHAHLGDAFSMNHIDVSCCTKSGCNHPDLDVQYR

In order of falling koff:
1. B35  0.00733 s⁻¹
2. B21  0.00675 s⁻¹
3. B23  0.00613 s⁻¹
4. B2  0.00611 s⁻¹
5. B7  0.00594 s⁻¹
6. B3  0.00579 s⁻¹
7. B8  0.00562 s⁻¹
8. B5  0.00561 s⁻¹
9. B19  0.00552 s⁻¹
10. B30  0.0055 s⁻¹
11. B24  0.00504 s⁻¹
12. B38  0.00494 s⁻¹
13. B20  0.0049 s⁻¹
14. B10  0.00448 s⁻¹
15. B14  0.00442 s⁻¹
16. B6  0.00438 s⁻¹
17. B29  0.00438 s⁻¹
18. B16  0.00436 s⁻¹
19. B12  0.00415 s⁻¹
20. B37  0.00395 s⁻¹
21. B17  0.00392 s⁻¹
22. B31  0.00371 s⁻¹
23. B11  0.00367 s⁻¹
24. B13  0.00358 s⁻¹
25. B27  0.00346 s⁻¹
26. B33  0.00319 s⁻¹
27. B26  0.00315 s⁻¹
28. B4  0.00311 s⁻¹
29. B22  0.0031 s⁻¹
30. B18  0.00257 s⁻¹
31. B32  0.00242 s⁻¹
32. B36  0.00242 s⁻¹
33. B1  0.00239 s⁻¹
34. B34  0.00202 s⁻¹
35. B9  0.00179 s⁻¹
36. B25  0.00178 s⁻¹
37. B15  0.00137 s⁻¹
38. B28  0.00106 s⁻¹

The binders below were run against T4, human soluble urokinase plasminogen activator receptor (suPAR) (human, UniProt Q03405 23-303, limits assumed) (assay: BLI (Octet) off-rate screen of scFv clones).
T4 construct: Target antigen of the scFv off-rate screen; also called hsuPAR; human suPAR
T4 sequence (Q03405 23-303 limits assumed): as above

With B39 the koff was 0.00402 s⁻¹.
